Here are results for 52 sequences from the supplement of paper PMC11780869.

This series concerns Bacillus subtilis. Put plainly: cleaved RNA product abundance (RNA/gDNA barcode ratio) relative to median wild-type variant (ratio to wild type); higher = more accumulation of the downstream cleavage product. Here is the method:
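MPRA in B. subtilis. Mutagenized RNase Y cleavage-site regions (9% mutation rate) were inserted into a barcoded reporter mRNA (truncated aprE or tetM). Cells were grown in LB at 37°C to OD600 0.3. The cleaved RNA isoform was gel-purified and its barcodes counted; the RNA:gDNA barcode ratio was normalised to the median wild-type variant, and the median over barcodes is reported per variant. The printed sequence is the variable window only; the reporter flanks are not printed.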

Setting [1] is: experiment (reporter, strain, medium): exp 8a: truncated aprE reporter, strain BJT201 with 2% xylose (RNase J1 expressed), cleavage site: glnRA (positions -5 to +31 mutated).
Setting [2] is: experiment (reporter, strain, medium): exp 4a: truncated aprE reporter, strain BJT201 with 2% xylose (RNase J1 expressed), cleavage site: cggR-gapA (positions -7 to +36 mutated).
Setting [3] is: experiment (reporter, strain, medium): exp 2b: truncated aprE reporter, strain BJT200, cleavage site: cggR-gapA (positions -7 to +36 mutated).

For “CGACATGTCCCGCTTCTTTCATTAATCCGTTAGCCACTATTTTGCTATATACATTTACCTTTTAAGAGGAGGAAT”, the “cleaved RNA product abundance” value under setting [1] came to 0.358.

Consider “ACAGACGAAGGAGCCGCACAGAAGATATTAAGGGATGAATAATCCCTCAATATAAATATCTCTCACTTATTTAAA”, for which the “cleaved RNA product abundance” value under setting [2] turned out to be 0.364.

In the case of “ACAGACGAAGGAGCCGCAATGAAGTTATTAAGGGATGAATAATCCCTGAATATAAATATCTCTCACTTATTTAAA”, under setting [2], the “cleaved RNA product abundance” value is 0.713.

For the sequence “ACAGACGAAGGAGCCGCAACGAAGTTATTAAGGGATAAATAATCCCTCAATATAAATATCTCTCACTTATTTAAA”, the “cleaved RNA product abundance” value stood at 0.891 under setting [3] and 0.739 under setting [2].

In the case of “ACAGACGAAGGAGCCGCAAAGAAGTTATTAAGGGATGAATAATCCCTCCAAATAAATATCTCTCACTTATTTAAA”, the “cleaved RNA product abundance” value under setting [3] was determined as 0.239 and the “cleaved RNA product abundance” value under setting [2] turned out to be 0.313.

With “ACAGACGAAGGAGCCGCAAAAAAGTTATTAAGGGATGAATAATCCGTCAATATAAATATCTCTCACTTATTTAAA”, the “cleaved RNA product abundance” value runs as follows: under setting [3], 0.168; under setting [2], 0.242.

On to “CGACATGTCCCGCTTCTTTCATTAATCCGTTATAAACTGTTTTGCTATATACATTTACCTTTTAAGAGGAGGAAT”, for which, under setting [1], the “cleaved RNA product abundance” value is 0.276.

For the sequence “CGACATGTCCCGCTTCTTTCATTAATACGTTCGCAACTGTTTTGCTATATACATTTACCTTTTAAGAGGAGGAAT”, the “cleaved RNA product abundance” value under setting [1] amounted to 0.216.

With “CGACATGTCCCGCTTCTTTCATTAATCCGTTAGCAACTGTTATGATATATACATTTACCTTTTAAGAGGAGGAAT”, under setting [1], the “cleaved RNA product abundance” value was found to be 0.387.

As for “ACAGACGAAGGAGCCGCAAAGAACTTATTAAGGGTTGAATAATCCCTCAATATAAATATCTCTCACTTATTTAAA”, the “cleaved RNA product abundance” value reads like this: under setting [3], 0.218; under setting [2], 0.232.

For the sequence “ACAGACGAAGGAGCCGCAAAGAAGTTATTAAGGGATGTATAATACCTCAATATAAATATCTCTCACTTATTTAAA”, the “cleaved RNA product abundance” value came to 0.139 under setting [3] and 0.103 under setting [2].

Consider “ACAGACGAAGGAGCCGCAAAGAAGTCATTAAGGGATAAATAATCCCTCAATATAAATATCTCTCACTTATTTAAA”, for which the “cleaved RNA product abundance” value runs as follows: under setting [3], 0.195; under setting [2], 0.308.

Take “ACAGACGAAGGAGCCGCAAAGAAATTATTTAGGGATGAATAATCCCTCAATATAAATATCTCTCACTTATTTAAA”: the “cleaved RNA product abundance” value under setting [2] turned out to be 0.718.

Regarding “CGACATGTCCCGCTTCTTTCATTAATCCGTTAGCAACTGTTTTTCTATATACACTTACCTTTTAAGAGGAGGAAT”, the “cleaved RNA product abundance” value under setting [1] amounted to 0.721.

On to “ACAGACGAAGGAGCCGCAAAGAAGTTATTAAGGGTTGAATAATCCCTCAATATAAATATTTCTCACTTATTTAAA”, for which the “cleaved RNA product abundance” value under setting [2] amounted to 0.512.

Turning to “ACAGACGAAGGAGCCGCAACGAAGTTATTAAGGGATGTATAATCCCTCAATATAAATATCTCTCACTTATTTAAA”, the “cleaved RNA product abundance” value under setting [2] was 0.656.

As to “ACAGACGAAGGAGCCGCAAAGAAGTTATTAAGGGATGCATAATCCCTCAATTTAAATATCTCTCACTTATTTAAA”, under setting [3], the “cleaved RNA product abundance” value stood at 0.177.

Turning to “ACAGACGAAGGAGCCGCAAAGAAGTTATTATGGGATGAATAATCCGTCAATATAAATATCTCTCACTTATTTAAA”, the “cleaved RNA product abundance” value under setting [2] amounted to 0.279.

In the case of “ACAGACGAAGGAGCCGCAAAGAAGTTATTAAGGTATGAATAATCCCTCAATAGAAATATCTCTCACTTATTTAAA”, the “cleaved RNA product abundance” value under setting [2] is 0.0725.

“ACAGACGAAGGAGCCGCACAGAAGTTATTAAGGGAAGAATAATCCCTCAATATAAATATCTCTCACTTATTTAAA”: the “cleaved RNA product abundance” value by setting is: under setting [3], 0.452; under setting [2], 0.573.

With “ACAGACGAAGGAGCCGCAAAGAAGTTATTAAGGGATGAATAATCCCTTAATATAAATAACTCTCACTTATTTAAA”, the “cleaved RNA product abundance” value under setting [2] was 0.433.

On to “ACAGACGAAGGAGCCGCAAAGATGTTATTAAGGGATGAATAATCCCTAAATATAAATATCTCTCACTTATTTAAA”, for which, under setting [2], the “cleaved RNA product abundance” value was found to be 1.11.

As to “ACAGACGAAGGAGCCGCAAAGAAGTTATGAAGGGATAAATAATCCCTCAATATAAATATCTCTCACTTATTTAAA”, the “cleaved RNA product abundance” value under setting [3] worked out at 0.349 and the “cleaved RNA product abundance” value under setting [2] came to 0.542.

In the case of “ACAGACGAAGGAGCCGCAAAGAAGTTATTAAGGGATGAATAATTCCTCAATATAAAAATCTCTCACTTATTTAAA”, under setting [2], the “cleaved RNA product abundance” value is 0.86.

For “ACAGACGAAGGAGCCGCAAAGAAGTTATTAAGGGATGCATAATCCCTCACTATAAATATCTCTCACTTATTTAAA”, the “cleaved RNA product abundance” value under setting [2] stood at 0.233.

Turning to “CGACATGTCCCGCTTCTTTCATTAATCCGTTAGCAAATGTTTTGCTATATACATTTACATTTTAAGAGGAGGAAT”, the “cleaved RNA product abundance” value under setting [1] is 1.23.

For the sequence “ACAGACGAAGGAGCCGCAAAGAAGTTATTAAGGGATGAATAAACCCTCAATATAAATAACTCTCACTTATTTAAA”, the “cleaved RNA product abundance” value under setting [2] was 0.464.

“ACAGACGAAGGAGCCGCAAAGAAGTTATTAAGGGATGAATAATGCCTCATTATAAATATCTCTCACTTATTTAAA”: the “cleaved RNA product abundance” value under setting [2] came out at 0.127.

For the sequence “ACAGACGAAGGAGCCGCAAAGAAGTTATTAATGGATGAATAATCCCTGAATATAAATATCTCTCACTTATTTAAA”, the “cleaved RNA product abundance” value worked out at 0.0961 under setting [3] and 0.133 under setting [2].

Take “CGACATGTCCCGCTTCTTTCATTAATCCCTTAGCAACTGTTTTGCTATATACAATTACCTTTTAAGAGGAGGAAT”: the “cleaved RNA product abundance” value under setting [1] came out at 0.305.

Take “CGACATGTCCCGCTTCTTTCATTAATTCGTTAGCAACTGTTTTGCTATATACATTTAGCTTTTAAGAGGAGGAAT”: the “cleaved RNA product abundance” value under setting [1] is 1.88.

As for “ACAGACGAAGGAGCCGCAAAGATTTTATTAAGGGATGAATAATCCCTCAATATAAATATCTCTCACTTATTTAAA”, the “cleaved RNA product abundance” value is, setting by setting: under setting [3], 1.07; under setting [2], 0.974.

“ACAGACGAAGGAGCCGCAAAGAAATTATTAAGGGATAAATAATCCCTCAATATAAATATCTCTCACTTATTTAAA”: the “cleaved RNA product abundance” value reads like this: under setting [3], 0.818; under setting [2], 0.761; (experiment (reporter, strain, medium): exp 6: tetM reporter, strain 168, cleavage site: cggR-gapA (positions -7 to +36 mutated)) 1.1.

For the sequence “ACAGACGAAGGAGCCGCAAAGAAGATATTAAGAGATGAATAATCCCTCAATATAAATATCTCTCACTTATTTAAA”, the “cleaved RNA product abundance” value by setting is: under setting [3], 0.128; under setting [2], 0.221.

As for “CGACATGTCCCGCTTCTTTCATTACTCCGTTAGCAACAGTTTTGCTATATACATTTACCTTTTAAGAGGAGGAAT”, under setting [1], the “cleaved RNA product abundance” value was found to be 0.834.

For “CGACATGTCCCGCTTCTTTCATTAATCCGTTATGAACTGTTTTGCTATATACATTTACCTTTTAAGAGGAGGAAT”, the “cleaved RNA product abundance” value under setting [1] turned out to be 0.252.

“ACAGACGAAGGAGCCGCAAATAAGTTATTAAGGGAAGAATAATCCCTCAATATAAATATCTCTCACTTATTTAAA”: the “cleaved RNA product abundance” value is, setting by setting: under setting [3], 0.497; under setting [2], 0.366.

Consider “ACAGACGAAGGAGCCGCCAAGAAGTAATTAAGGGATGAATAATCCCTCAATATAAATATCTCTCACTTATTTAAA”, for which, under setting [2], the “cleaved RNA product abundance” value worked out at 0.375.

“CGACATGTCCCGCTTCTTTCATTAATACGTTAGCAACTGTTTTGCTATATACATTTATCTTTTAAGAGGAGGAAT”: the “cleaved RNA product abundance” value under setting [1] was 1.51.

As for “CGACATGTCCCGCTTCTTTCATTAATCCGTTATCAACTGTTTTGCTATAGACATTTACCTTTTAAGAGGAGGAAT”, the “cleaved RNA product abundance” value under setting [1] is 0.206.

With “ACAGACGAAGGAGCCGCAAAGAAGTCAATAAGGGATGAATAATCCCTCAATATAAATATCTCTCACTTATTTAAA”, the “cleaved RNA product abundance” value under setting [2] was determined as 0.284.

On to “ACAGACGAAGGAGCCGCAAAGAAGTTATTCAGGGATGAATAATCCGTCAATATAAATATCTCTCACTTATTTAAA”, for which the “cleaved RNA product abundance” value under setting [3] was 0.117.

Consider “CGACATGTCCCGCTTCTTTCATTAATCCCTTAGCAACTGTTTTTCTATATACATTTACCTTTTAAGAGGAGGAAT”, for which the “cleaved RNA product abundance” value under setting [1] was determined as 0.163.

Turning to “ACAGACGAAGGAGCCGCAAAGAAGATATTAAGGGATGAATGATCCCTCAATATAAATATCTCTCACTTATTTAAA”, the “cleaved RNA product abundance” value under setting [2] was found to be 0.565.

“CGACATGTCCCGCTTCTTTCATTAATCCGTTAGCAACTGTTTTGGTAGATACATTTACCTTTTAAGAGGAGGAAT”: the “cleaved RNA product abundance” value under setting [1] turned out to be 0.115.

“ACAGACGAAGGAGCCGCAAAGATATTATTAAGGGATGAATAATCCCTCAATATAAATATCTCTCACTTATTTAAA”: the “cleaved RNA product abundance” value under setting [3] was found to be 0.93 and the “cleaved RNA product abundance” value under setting [2] was 0.459.

As for “ACAGACGAAGGAGCCGCAAAGACGTTATTAAGGGATAAATAATCCCTCAATATAAATATCTCTCACTTATTTAAA”, the “cleaved RNA product abundance” value under setting [2] was determined as 1.2.

On to “ACAGACGAAGGAGCCGCATAGAAGTTATTAAGGGATGAATAAACCCTCAATATAAATATCTCTCACTTATTTAAA”, for which the “cleaved RNA product abundance” value runs as follows: under setting [3], 0.448; under setting [2], 0.471.

For “CGACATGTCCCGCTTCTTTCATTAATACGTTAGCAACTGTTTTGCTATATACATTTACCATTTAAGAGGAGGAAT”, the “cleaved RNA product abundance” value under setting [1] amounted to 0.353.

As to “ACAGACGAAGGAGCCGCAAAGAGGTTAATAAGGGATGAATAATCCCTCAATATAAATATCTCTCACTTATTTAAA”, under setting [2], the “cleaved RNA product abundance” value turned out to be 0.363.

As for “ACAGACGAAGGAGCCGCAAAAAAGTTATTAAGGGATGAATAACCCCTCAATATAAATATCTCTCACTTATTTAAA”, the “cleaved RNA product abundance” value was determined as 0.455 under setting [3] and 0.458 under setting [2].

With “ACAGACGAAGGAGCCGCAAAGAAGTTATTAAGTGATGAATAATCCCTCAATATAAATAACTCTCACTTATTTAAA”, the “cleaved RNA product abundance” value under setting [2] is 0.119.
